Values joined by “and” are separate entries in the source; they are usually repeats but may differ in a detail not shown here. Equal values may be shown once. Read-outs that look alike come from different tables or passages of the source.
B1: mAb 19B (antibody, human IgG1)
VH: QVQLVVESGGGLRPGGSLRLSCAASGTTLSGYTMHWVRQAPGKGLEWVSSITGGSNFINYSDSVKGRFTISRDNAKNSLYLQMNSLTAEDTAVYYCATAPIAPPYFDHWGQGTLVTVSS
light: DIQMTQSPSSLSASVGDRVTITCRATQSVSNFLNWYQQKPGEAPTLLIYDASTSQSGVPSRFSGSGSGMDFSLTISSLQPEDLAMYYCQASINTPLFGGGTRIDMRR
modifications: N-linked carbohydrate at Asn59 in part of the molecules (glycovariant)
notes: Human IgG1, kappa; also called Hu19B; version B
B2: Fab19B Fraction B (94% glycovariant) (Fab)
VH: QVQLVVESGGGLRPGGSLRLSCAASGTTLSGYTMHWVRQAPGKGLEWVSSITGGSNFINYSDSVKGRFTISRDNAKNSLYLQMNSLTAEDTAVYYCATAPIAPPYFDHWGQGTLVTVSS
light: DIQMNFLNWYQQKPGEAPTLLIYDASTSQSGVPSRFSGSGSGMDFSLTISSLQPEDLAMYYCQASINTPLFGGGTRIDMRR
modifications: N-linked carbohydrate at Asn59 in 94% of the preparation
B3: Fab19B (Fab)
VH: QVQLVVESGGGLRPGGSLRLSCAASGTTLSGYTMHWVRQAPGKGLEWVSSITGGSNFINYSDSVKGRFTISRDNAKNSLYLQMNSLTAEDTAVYYCATAPIAPPYFDHWGQGTLVTVSS
light: DIQMNFLNWYQQKPGEAPTLLIYDASTSQSGVPSRFSGSGSGMDFSLTISSLQPEDLAMYYCQASINTPLFGGGTRIDMRR
modifications: N-linked carbohydrate at Asn59 in <10% of the preparation (Table 4)
B4: mAb 19B Fraction A (<5% glycovariant) (antibody, human IgG1)
VH: QVQLVVESGGGLRPGGSLRLSCAASGTTLSGYTMHWVRQAPGKGLEWVSSITGGSNFINYSDSVKGRFTISRDNAKNSLYLQMNSLTAEDTAVYYCATAPIAPPYFDHWGQGTLVTVSS
light: DIQMNFLNWYQQKPGEAPTLLIYDASTSQSGVPSRFSGSGSGMDFSLTISSLQPEDLAMYYCQASINTPLFGGGTRIDMRR
modifications: N-linked carbohydrate at Asn59 in <5% of the preparation
B5: mAb 19D (antibody, human IgG1)
VH: QVQLVVESGGGLRPGGSLRLSCAASGTTLSGYTMHWVRQAPGKGLEWVSSITGGSNFIQYSDSVKGRFTISRDNAKNSLYLQMNSLTAEDTAVYYCATAPIAPPYFDHWGQGTLVTVSS
light: not shown
B6: mAb 19B Fraction B (40% glycovariant) (antibody, human IgG1)
VH: QVQLVVESGGGLRPGGSLRLSCAASGTTLSGYTMHWVRQAPGKGLEWVSSITGGSNFINYSDSVKGRFTISRDNAKNSLYLQMNSLTAEDTAVYYCATAPIAPPYFDHWGQGTLVTVSS
light: DIQMNFLNWYQQKPGEAPTLLIYDASTSQSGVPSRFSGSGSGMDFSLTISSLQPEDLAMYYCQASINTPLFGGGTRIDMRR
modifications: N-linked carbohydrate at Asn59 in 40% of the preparation
B7: Fab19B Fraction A (1% glycovariant) (Fab)
VH: QVQLVVESGGGLRPGGSLRLSCAASGTTLSGYTMHWVRQAPGKGLEWVSSITGGSNFINYSDSVKGRFTISRDNAKNSLYLQMNSLTAEDTAVYYCATAPIAPPYFDHWGQGTLVTVSS
light: DIQMNFLNWYQQKPGEAPTLLIYDASTSQSGVPSRFSGSGSGMDFSLTISSLQPEDLAMYYCQASINTPLFGGGTRIDMRR
modifications: N-linked carbohydrate at Asn59 in 1% of the preparation
B8: mAb 19C (antibody, human IgG1)
VH: QVQLVVESGGGLRPGGSLRLSCAASGTTLSGYTMHWVRQAPGKGLEWVSSITGGSNFINYADSVKGRFTISRDNAKNSLYLQMNSLTAEDTAVYYCATAPIAPPYFDHWGQGTLVTVSS
light: not shown
B9: Fab19B Fraction C (99% glycovariant) (Fab)
VH: QVQLVVESGGGLRPGGSLRLSCAASGTTLSGYTMHWVRQAPGKGLEWVSSITGGSNFINYSDSVKGRFTISRDNAKNSLYLQMNSLTAEDTAVYYCATAPIAPPYFDHWGQGTLVTVSS
light: DIQMNFLNWYQQKPGEAPTLLIYDASTSQSGVPSRFSGSGSGMDFSLTISSLQPEDLAMYYCQASINTPLFGGGTRIDMRR
modifications: N-linked carbohydrate at Asn59 in 99% of the preparation
B10: Fab19 (Fab)
VH: EVQLLEVESGGGLRPGGSLRLSCAASGTTLSGYTMHWVRQAPGKGLEWVSSITGGSNFINYSDSVKGRFTISRDNAKNSLYLQMNSLTAEDTAVYYCATAPIAPPYFDHWGQGTLVTVSS
light: ELTQSPSSLSASVGDRVTITCRATQSVSNFLNWYQQKPGEAPTLLIYDASTSQSGVPSRFSGSGSGMDFSLTISSLQPEDLAMYYCQASINTPLFGGGTRIDMRR
B11: mAb 19A (antibody, human IgG1)
VH: EVQLLEVESGGGLRPGGSLRLSCAASGTTLSGYTMHWVRQAPGKGLEWVSSITGGSNFINYSDSVKGRFTISRDNAKNSLYLQMNSLTAEDTAVYYCATAPIAPPYFDHWGQGTLVTVSS
light: ELTQSPSSLSASVGDRVTITCRATQSVSNFLNWYQQKPGEAPTLLIYDASTSQSGVPSRFSGSGSGMDFSLTISSLQPEDLAMYYCQASINTPLFGGGTRIDMRR
B12: Fab19A (Fab)
VH: EVQLLEVESGGGLRPGGSLRLSCAASGTTLSGYTMHWVRQAPGKGLEWVSSITGGSNFINYSDSVKGRFTISRDNAKNSLYLQMNSLTAEDTAVYYCATAPIAPPYFDHWGQGTLVTVSS
light: ELTQSPSSLSASVGDRVTITCRATQSVSNFLNWYQQKPGEAPTLLIYDASTSQSGVPSRFSGSGSGMDFSLTISSLQPEDLAMYYCQASINTPLFGGGTRIDMRR

How the values were obtained:
[1] = target: T1, F protein of RS Long strain virus (native form, on virus and infected VERO cells) (Respiratory Syncytial Virus, UniProt P12568 26-574); experiment: cell-based or functional assay
T1 sequence (P12568 26-574): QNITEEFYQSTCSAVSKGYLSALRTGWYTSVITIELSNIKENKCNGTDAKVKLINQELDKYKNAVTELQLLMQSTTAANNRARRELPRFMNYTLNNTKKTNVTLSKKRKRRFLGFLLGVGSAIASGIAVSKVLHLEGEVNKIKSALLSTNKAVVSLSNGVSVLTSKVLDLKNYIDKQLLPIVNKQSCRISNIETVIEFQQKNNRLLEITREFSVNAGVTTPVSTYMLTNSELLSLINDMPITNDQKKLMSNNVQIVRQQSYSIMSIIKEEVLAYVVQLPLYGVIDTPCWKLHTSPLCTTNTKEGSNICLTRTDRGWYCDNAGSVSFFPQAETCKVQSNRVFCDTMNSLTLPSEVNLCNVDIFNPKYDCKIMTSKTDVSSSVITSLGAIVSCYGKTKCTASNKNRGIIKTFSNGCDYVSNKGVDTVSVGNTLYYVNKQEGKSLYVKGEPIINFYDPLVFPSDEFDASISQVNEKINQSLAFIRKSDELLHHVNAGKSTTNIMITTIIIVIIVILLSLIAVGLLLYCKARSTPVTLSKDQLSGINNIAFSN

[2] = target: T1, F protein of RS Long strain virus …; experiment: cell-based or functional assay; remark: listed apart in the source
[3] = target: T1, F protein of RS Long strain virus …; experiment: cell-based or functional assay; remark: listed apart in the source
[4] = target: T1, F protein of RS Long strain virus …; experiment: ELISA on methanol-fixed VERO cells infected with RS Long virus, biotinylated mAb 19B, HRP-streptavidin

Row | Binder | Fusion-Inhibition EC50 [2] | Fusion-Inhibition Titer EC50 [3] [µg/mL] | other results
1 | B1 | 2.3 ug/ml and 15.3 nM | 2.5 | Fusion-Inhibition Titer EC50 [1]: 2.3 µg/mL; Neutralization EC50 [2]: 1.5 µg/mL; EC50 [4]: 0.034 µg/mL
2 | B2 | – | 1.5 | –
3 | B3 | 0.12 ug/ml and 2.4 nM | 0.12 | –
4 | B4 | – | 1.8 | –
5 | B5 | 2.6 ug/ml and 17.3 nM | – | –
6 | B6 | – | 3.8 | –
7 | B7 | – | 0.89 | –
8 | B8 | 2.4 ug/ml and 16 nM | – | –
9 | B9 | – | 3.7 | –
10 | B10 | 0.22 ug/ml and 4.4 nM | – | Neutralization EC50 [2]: 0.34 µg/mL
11 | B11 | 18.9 nM and 2.8 ug/ml | – | Neutralization EC50 [2]: 2.2 µg/mL
12 | B12 | 0.16 ug/ml and 3 nM | – | –

From patent US20050019758A1 (GlaxoSmithKline, published 2005)
